Reference: article PMC5535893

Key:
[1] = molecular target: mouse CD3εγ-chains (mouse (endogenous in C57BL/6 spleen T cells)) (UniProt P22646)
[2] = molecular target: mouse CD3εγ-chains (mouse (endogenous in C57BL/6 spleen T cells)) (UniProt P22646); test: flow cytometry on cells; fixed CD8+ T cells (1 x 10^6/mL) incubated with or without ArtinM (25 µg/mL) for 40 min at 4 °C, then with 145-2C11-PE or 17A2-FITC (10 µg/mL) for 40 min at 4 °C; percentage of cells labelled with anti-CD3 antibody

UniProt P22646, sequence (P22646 22-189, chain 1 of 2): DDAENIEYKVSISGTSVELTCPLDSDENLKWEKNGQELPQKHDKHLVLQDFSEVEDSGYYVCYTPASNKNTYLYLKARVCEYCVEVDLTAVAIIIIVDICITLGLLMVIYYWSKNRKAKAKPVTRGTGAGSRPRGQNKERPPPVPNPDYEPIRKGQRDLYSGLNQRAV
UniProt P22646, sequence (P11942 23-182, chain 2 of 2, further chain): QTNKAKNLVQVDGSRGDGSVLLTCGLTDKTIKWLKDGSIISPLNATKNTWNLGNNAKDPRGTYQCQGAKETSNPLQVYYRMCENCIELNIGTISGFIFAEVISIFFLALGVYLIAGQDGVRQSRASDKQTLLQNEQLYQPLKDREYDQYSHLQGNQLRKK

## ArtinM, D-mannose-binding lectin from Artocarpus heterophyllus (natural protein)
[1]
  inhibition of the ArtinM-induced (1.25 µg/mL, 48 h) IL-2 release by CD8+ T cells after treatment with the anti-CD3εγ-chains antibody 17A2 (8 µg/mL), against an IgG isotype control; ELISA: 70%
[2]
  fold decrease in the frequency of CD8+ T cells labelled by the anti-CD3εγ antibody 17A2 after pre-incubation with ArtinM: 3.5 fold
